Measured values from patent US20220387578A1 (VANDERBILT UNIVERSITY, published 2022).

T1: eHead_H1_v3.1_mC
T1 chain: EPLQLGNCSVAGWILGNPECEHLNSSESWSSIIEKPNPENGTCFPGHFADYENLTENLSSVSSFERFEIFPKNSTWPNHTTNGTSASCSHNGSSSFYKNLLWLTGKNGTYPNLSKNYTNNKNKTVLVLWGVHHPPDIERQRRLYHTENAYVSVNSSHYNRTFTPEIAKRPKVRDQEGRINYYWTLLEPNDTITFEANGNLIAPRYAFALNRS


Biological target: T1, eHead_H1_v3.1_mC
Test: SPR

Row | Binder | Kd
1 | FluA20 (as used in the SPR experiments of Example 4) (antibody, V domains shown) VH: QVQLQESGPGLVKPSETLSLTCSVSGVSVTSDIYYWTWIRQPPGKGLEWIGYIFYNGDTNYNPSLKSRVTMSIDTSKNEFSLRLTSVTAADTAVYFCARGTEDLGYCSSGSCPNHWGQGTLVTVSS VL: DIQMTQSPSSLSASIGDRVTITCRPSQNIRSFLNWFQHKPGKAPKLLIYAASNLQSGVPSRFSGSGSGTEFTLTIRSLQPEDFATYYCQQSYNTPPTFGQGTKVEIK | 2.8 nM
2 | FluA20_UCA (as used in the SPR experiments of Example 4) (antibody, V domains shown) VH: QVQLQESGPGLVKPSETLSLTCTVSGGSVSSGSYYWSWIRQPPGKGLEWIGYIYYSGSTNYNPSLKSRVTISVDTSKNQFSLKLSSVTAADTAVYYCARGTEDLGYCSGGSCPNHWGQGTLVTVSS VL: not shown | 220 nM
